Test system: SNAPtide (FITC/DABCYL), List Biological Laboratories product #521

Substance: BoNT/A complex
- Km, non-bead based assay (free BoNT/A), SNAPtide conversion: typical Km=0.7 µM
- fold change of Km, immobilized against free enzyme: 3.2-fold lower

From US20130065259A1
